We go through two molecules from patent US20150125449A1 (published 2015).

Test [1] has as its target T1, Her2 on the surface of Her2-expressing cell lines (human, UniProt P04626 23-1255).
T1 construct: whole, on cells; The cell line of each value is named under assay; also called ErbB2; Her2 receptor
The test can be described thus: flow cytometry, MDA-MB-231 cells.

Test [2] concerns the target Recombinant human HER2 (human, UniProt P04626 23-652). As to the kind of experiment: SPR, antibody captured on anti-human IgG, recombinant human HER2 as analyte, 1:1 Langmuir; average, n 4.
For test [3], the target named is T1, Her2 on the surface of Her2-expressing …. As to the kind of experiment: flow cytometry, SKOV3 cells.
Test [4] shares this target. The test can be described thus: flow cytometry, SKBR3 cells. For orientation: Flow cytometry measures light scatter and fluorescence of single cells or particles in a stream.
Test [5] has the same target. As to the kind of experiment: flow cytometry, SKOV3 cells. This is another data set of the same source.

Broadly, the Kd is the constant that tells how readily two partners part at equilibrium. By koff is commonly meant a measure of how fast the partners let go of each other. A word on the kon: it is the second-order rate constant of association.

B1: OA2-Fab-Her2 (antibody)
chain 1: not shown
chain 2: not shown
chain 3: EPKSSDKTHTCPPCPAPELLGGPSVFLFPPKPKDTLMISRTPEVTCVVVDVSHEDPEVKFNWYVDGVEVHNAKTKPREEQYNSTYRVVSVLTVLHQDWLNGKEYKCKVSNKALPAPIEKTISKAKGQPREPQVYVYPPSRDELTKNQVSLTCLVKGFYPSDIAVEWESNGQPENNYKTTPPVLDSDGSFALVSKLTVDKSRWQQGNVFSCSVMHEALHNHYTQKSLSLSPGK
Regarding B1, in test [1], the Bmax was 412 and binding was put at a Kd of 9.97 nM. In test [2], the Kd was found to be 0.435 nM, the koff came to 0.000131 s⁻¹ and the kon came to 313000 M⁻¹ s⁻¹. In test [3], this molecule gave a Bmax of 7070 and a Kd of 4.72 nM. Moreover, in test [4], the Bmax was 64800 and the affinity, expressed as Kd, was 10.8 nM.

B2: OA4-scFv-BID2 (antibody)
chain 1: QVQLVQSGAEVKKPGESLKISCKGSGYSFTSYWIAWVRQMPGKGLEYMGLIYPGDSDTKYSPSFQGQVTISVDKSVSTAYLQWSSLKPSDSAVYFCARHDVGYCTDRTCAKWPEWLGVWGQGTLVTVSSGGGGSSGGGSGGGGSQSVLTQPPSVSAAPGQKVTISCSGSSSNIGNNYVSWYQQLPGTAPKLLIYDHTNRPAGVPDRFSGSKSGTSASLAISGFRSEDEADYYCASWDYTLSGWVFGGGTKLTVLGAAEPKSSDKTHTCPPCPAPELLGGPSVFLFPPKPKDTLMISRTPEVTCVVVDVSHEDPEVKFNWYVDGVEVHNAKTKPREEQYNSTYRVVSVLTVLHQDWLNGKEYKCKVSNKALPAPIEKTISKAKGQPREPQVYTYPPSRDELTKNQVSLTCLVKGFYPSDIAVEWESNGQPENNYKTTPPVLDSDGSFALVSKLTVDKSRWQQGNVFSCSVMHEALHNHYTQKSLSLSPGK
chain 2: not shown
Turning to B2, in test [5], the Bmax was found to be 7950.
